{
  "source": "patent US20160282364A1",
  "about": "“ASSAY FOR INSULIN-DEGRADING ENZYME (IDE) INHIBITORS” (PRESIDENT AND FELLOWS OF HARVARD COLLEGE, priority 2013, published 2016)",
  "origin": "cited, not measured here",
  "test_system": "IDE",
  "data": [
    {"molecule": "insulin-like peptide 3 (protein, UniProt P51460 21-55; P51460 106-131, looked up, Insulin-like 3, IDE substrate in vitro) Insulin-like 3 B chain: LGPAPTPEMREKLCGHHFVRALVRVCGGPRWSTEA Insulin-like 3 A chain: AAATNPARYCCLSGCTQQDLLTLCPY", "values": [
      {"measurement": "Km", "setting": "IDE substrate", "value": 0.055, "unit": "µM"},
      {"measurement": "kcat", "setting": "IDE substrate", "value": 0.0025, "unit": "s⁻¹"},
      {"measurement": "Degradation", "setting": "degradation kinetics compared to insulin", "value": "Fast"}
    ]}
  ]
}
